This passage reports Kd results from publication PMC10366140.

This data set has as its system apRAD51C-CTD-1 R258H (Alvinella pompejana). Nature of the data set: fluorescence polarization. The conditions noted are these: FP: 20 mM HEPES pH 8, 80 mM NaCl, 2.5 mM ATP, 2.5 mM MgCl2, 1 mM DTT, 0.1 mg/mL BSA, 10 nM DNA, 37 C 20 min, EMSA: 20 mM Tris pH 8.0, 150 mM KCl, 4 C 15 min. In general terms: Fluorescence polarisation rises when a labelled molecule tumbles more slowly, as on binding a larger partner.

TTTTTTTTTTTTTTTTTTTT [poly-20dT] yielded a Kd of 36.5 µM.

A word on the Kd: it is the equilibrium constant for the complex coming apart. High values mean weaker binding, low ones tighter binding.
